In US20240336672A1:

B1: Cilgavimab (antibody, V domains shown)
VH: EVQLVESGGGLVKPGGSLRLSCAASGFTFRDVWMSWVRQAPGKGLEWVGRIKSKIDGGTTDYAAPVKGRFTISRDDSKNTLYLQMNSLKTEDTAVYYCTTAGSYYYDTVGPGLPEGKFDYWGQGTLVTVSS
VL: not shown
B2: Adintrevimab (antibody, V domains shown)
VH: EVQLVESGGGLVKPGGSLRLSCAASGFTFSSYYMNWVRQAPGKGLEWVSSISEDGYSTYYPDSLKGRFTISRDSAKNSLYLQMNSLRADDTAVYYCARDFSGHTAWAGTGFEYWGQGTLVTVSS
VL: QSVLTQPPSVSGAPGQRITISCTGSSSNIGAGYDVHWYQQLPGTAPKLLIYGSSSRNSGVPDRFSGSKSGTSASLAITGLQAEDEADYYCQSYDSSLSVLYTFGTGTKVTVL

Columns and labels:
Conditions in all cases: remark: other sources report otherwise
[1] = target: SARS-CoV-2 RBD (B.1.351) domain (SARS-CoV-2); assay: ELISA
[2] = target: SARS-CoV-2 RBD (B.1.351) domain (SARS-CoV-2); assay: ELISA; unit from paragraph 452, none printed in the heatmap
[3] = target: SARS-CoV-2 RBD (B.1.1.7) domain (SARS-CoV-2); assay: ELISA
[4] = target: SARS-CoV-2 RBD (P.1) domain (SARS-CoV-2); assay: ELISA
[5] = target: T1, SARS-CoV-2 Spike ectodomain (tri-S), Wuhan (SARS-CoV-2), P0DTC2; assay: ELISA
[6] = target: T1, SARS-CoV-2 Spike ectodomain (tri-S), …; assay: tri-S-ACE2 competition ELISA; unit from legend paragraph 348

Binder	OD405nm [1]	EC50 [2] [ng/mL]	OD405nm [3]	OD405nm [4]	OD405nm [5]	IC50 [6] [ng/mL]
B1	3.3	7	–	–	–	–
B2	3.4	7	3.4	3.4	3	200
